Results published in publication PMC12435574.

B1: Hsp47: S76A (protein)
parent chain: MRSLLLLSAFCLLEAALAAEVKKPAAAAAPGTAEKLSPKAATLAERSAGLAFSLYQAMAKDQAVENILVSPVVVASSLGLVSLGGKATTASQAKAVLSAEQLRDEEVHAGLGELLRSLSNSTARNVTWKLGSRLYGPSSVSFADDFVRSSKQHYNCEHSKINFRDKRSALQSINEWAAQTTDGKLPEVTKDVERTDGALLVNAMFFKPHWDEKFHHKMVDNRGFMVTRSYTVGVMMMHRTGLYNYYDDEKEKLQIVEMPLAHKLSSLIILMPHHVEPLERLEKLLTKEQLKIWMGKMQKKAVAISLPKGVVEVTHDLQKHLAGLGLTEAIDKNKADLSRMSGKKDLYLASVFHATAFELDTDGNPFDQDIYGREELRSPKLFYADHPFIFLVRDTQSGSLLFIGRLVRPKGDKMRDEL
B2: Hsp47: OSMI-1 (protein)
parent chain: B1 parent chain

How the values were obtained:
[1] = confocal immunofluorescence (LSCM), HCT116; conditions: glycan lost; control: wild type
[2] = immunofluorescence co-localisation with calnexin and GM130; conditions: glycan lost; control: cells without S76A mutation
[3] = confocal co-localisation with phalloidin, calnexin, GM130; conditions: glycan lost; control: untreated

Row | Protein | other: collagen I secretion by cells [1] | other: response of collagen I secretion/procollagen transport to kaempferol or OGT knockdown [2] | localisation_or_trafficking [3]
1 | B1 | decreases | abolishes | 
2 | B2 |  |  | changes
